Reference: publication PMC9482650, “Quantitative fragmentomics allow affinity mapping of interactomes” (Nature Communications, 2022)

Experiments:
Test in all cases: holdup assay
Design in all cases: key: below the threshold = too weak to quantify, mostly under pKd 3.1 to 4
GRIP1_7, Q9Y3R0 = molecular target: T1, GRIP1_7, Q9Y3R0
T1 sequence (Q9Y3R0 999-1096, limits assumed, looked up): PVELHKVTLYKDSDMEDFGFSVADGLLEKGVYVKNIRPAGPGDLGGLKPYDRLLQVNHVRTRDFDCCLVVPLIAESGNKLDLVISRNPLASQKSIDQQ

TJP3_3, O95049 = molecular target: T2, TJP3_3, O95049
T2 sequence (O95049 375-456, limits assumed, looked up): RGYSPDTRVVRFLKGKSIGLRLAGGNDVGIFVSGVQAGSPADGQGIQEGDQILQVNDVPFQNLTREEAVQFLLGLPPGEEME

DLG3_3, Q92796 = molecular target: T3, DLG3_3, Q92796
T3 sequence (Q92796 374-475, limits assumed, looked up): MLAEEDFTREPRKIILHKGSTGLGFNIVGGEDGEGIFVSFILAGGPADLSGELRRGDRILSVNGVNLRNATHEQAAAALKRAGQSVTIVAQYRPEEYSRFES

FRMPD2_1, Q68DX3 = molecular target: FRMPD2_1, Q68DX3
LNX1_3, Q8TBB1 = molecular target: LNX1_3, Q8TBB1
DLG4_2, P78352 = molecular target: DLG4_2, P78352
MAST2, Q6P0Q8 = molecular target: MAST2, Q6P0Q8
Inadl_2, Q8NI35 = molecular target: Inadl_2, Q8NI35
FRMPD4, Q14CM0 = molecular target: FRMPD4, Q14CM0
NHERF3_1, Q5T2W1 = molecular target: T4, NHERF3_1, Q5T2W1
T4 sequence (Q5T2W1 4-100, limits assumed, looked up): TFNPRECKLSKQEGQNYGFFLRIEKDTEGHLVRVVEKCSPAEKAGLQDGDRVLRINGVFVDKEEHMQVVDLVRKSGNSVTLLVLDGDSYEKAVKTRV

DLG4_1, P78352 = molecular target: DLG4_1, P78352
Inadl_8, Q8NI35 = molecular target: Inadl_8, Q8NI35
MAGI2_3, Q86UL8 = molecular target: MAGI2_3, Q86UL8
SCRIB_1, Q14160 = molecular target: SCRIB_1, Q14160
LNX1_1, Q8TBB1 = molecular target: LNX1_1, Q8TBB1
LIMK2, P53671 = molecular target: LIMK2, P53671
SNX27, Q96L92 = molecular target: SNX27, Q96L92
DLG1_3, Q12959 = molecular target: DLG1_3, Q12959
APBA2_1, Q99767 = molecular target: T5, APBA2_1, Q99767
T5 sequence (Q99767 563-664, limits assumed, looked up): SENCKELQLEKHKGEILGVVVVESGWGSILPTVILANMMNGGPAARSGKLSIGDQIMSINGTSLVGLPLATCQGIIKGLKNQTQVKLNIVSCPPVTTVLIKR

SCRIB_2, Q14160 = molecular target: SCRIB_2, Q14160
HTRA4, P83105 = molecular target: T6, HTRA4, P83105
T6 sequence (P83105 378-476, limits assumed, looked up): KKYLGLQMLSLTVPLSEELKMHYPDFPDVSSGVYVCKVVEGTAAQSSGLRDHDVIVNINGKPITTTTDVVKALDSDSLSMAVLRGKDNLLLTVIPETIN

MAGI2_5, Q86UL8 = molecular target: MAGI2_5, Q86UL8
DLG2_2, Q15700 = molecular target: DLG2_2, Q15700
PDZD2_2, O15018 = molecular target: T7, PDZD2_2, O15018
T7 sequence (O15018 329-429, limits assumed, looked up): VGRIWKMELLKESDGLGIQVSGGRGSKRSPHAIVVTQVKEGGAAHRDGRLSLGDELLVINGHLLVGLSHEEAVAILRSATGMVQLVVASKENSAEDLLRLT

NHERF4_1, Q86UT5-2 = molecular target: NHERF4_1, Q86UT5-2
GRIP2_3, Q9C0E4 = molecular target: GRIP2_3, Q9C0E4
DFNB31_3, Q9P202 = molecular target: T8, DFNB31_3, Q9P202
T8 sequence (Q9P202 811-907, limits assumed, looked up): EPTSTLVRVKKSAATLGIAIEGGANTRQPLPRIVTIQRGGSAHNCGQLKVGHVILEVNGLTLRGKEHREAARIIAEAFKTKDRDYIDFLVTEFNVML

GORASP2, Q9H8Y8 = molecular target: GORASP2, Q9H8Y8
GOPC, Q9HD26 = molecular target: GOPC, Q9HD26
DLG4_3, P78352 = molecular target: DLG4_3, P78352
NHERF4_4, Q86UT5 = molecular target: NHERF4_4, Q86UT5
[1] = plain residues with an end cap or a label only (N-terminal biotin on a linker: ttds)
[2] = plain residues with an end cap or a label only (N-terminal biotin on a linker: ahx)

LNX1_3, Q8TBB1, sequence (Q8TBB1 500-596): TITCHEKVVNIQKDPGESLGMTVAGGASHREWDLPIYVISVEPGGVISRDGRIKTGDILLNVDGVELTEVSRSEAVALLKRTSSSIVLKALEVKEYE
Inadl_8, Q8NI35, sequence (Q8NI35 1425-1530): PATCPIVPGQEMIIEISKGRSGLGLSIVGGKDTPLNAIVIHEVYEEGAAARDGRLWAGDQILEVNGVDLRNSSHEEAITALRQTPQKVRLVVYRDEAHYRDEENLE
MAST2, Q6P0Q8, sequence (Q6P0Q8 1099-1202): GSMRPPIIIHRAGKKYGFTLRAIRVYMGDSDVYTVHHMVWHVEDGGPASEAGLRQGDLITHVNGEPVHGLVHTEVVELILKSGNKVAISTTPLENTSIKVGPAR
MAGI2_5, Q86UL8, sequence (Q86UL8 915-1017): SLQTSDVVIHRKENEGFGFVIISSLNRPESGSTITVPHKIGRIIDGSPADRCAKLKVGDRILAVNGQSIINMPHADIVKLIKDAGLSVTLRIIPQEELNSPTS
DLG1_3, Q12959, sequence (Q12959 457-571): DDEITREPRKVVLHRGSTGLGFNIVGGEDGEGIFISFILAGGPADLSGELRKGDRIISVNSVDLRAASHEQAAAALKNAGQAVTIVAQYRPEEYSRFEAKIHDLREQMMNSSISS
DLG4_1, P78352, sequence (P78352 62-152): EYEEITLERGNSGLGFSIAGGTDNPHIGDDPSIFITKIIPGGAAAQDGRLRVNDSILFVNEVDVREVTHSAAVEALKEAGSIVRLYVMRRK
DLG2_2, Q15700, sequence (Q15700 189-283): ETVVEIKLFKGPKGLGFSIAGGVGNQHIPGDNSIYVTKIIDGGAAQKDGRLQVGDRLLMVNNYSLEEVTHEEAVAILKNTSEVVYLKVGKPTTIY
DLG4_3, P78352, sequence (P78352 306-403): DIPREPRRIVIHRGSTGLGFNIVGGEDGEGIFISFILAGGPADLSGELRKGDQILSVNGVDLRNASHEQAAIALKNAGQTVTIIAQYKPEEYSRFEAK
LIMK2, P53671, sequence (P53671 143-248): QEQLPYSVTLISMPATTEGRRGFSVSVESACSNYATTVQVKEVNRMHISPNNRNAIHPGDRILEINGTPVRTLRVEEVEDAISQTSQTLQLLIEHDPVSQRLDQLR
GRIP2_3, Q9C0E4, sequence (Q9C0E4 238-339): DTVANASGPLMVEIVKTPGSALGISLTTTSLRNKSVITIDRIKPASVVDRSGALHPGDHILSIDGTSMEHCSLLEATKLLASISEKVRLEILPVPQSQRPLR
MAGI2_3, Q86UL8, sequence (Q86UL8 600-682): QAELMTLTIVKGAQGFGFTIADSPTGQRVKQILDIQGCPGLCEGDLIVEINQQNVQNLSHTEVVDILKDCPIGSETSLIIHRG
Inadl_2, Q8NI35, sequence (Q8NI35 238-335): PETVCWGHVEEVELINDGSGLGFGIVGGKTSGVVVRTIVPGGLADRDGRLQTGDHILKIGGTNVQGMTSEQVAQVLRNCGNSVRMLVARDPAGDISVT
NHERF4_1, Q86UT5-2, sequence (Q86UT5 other isoform, or with tags, fused parts or gaps): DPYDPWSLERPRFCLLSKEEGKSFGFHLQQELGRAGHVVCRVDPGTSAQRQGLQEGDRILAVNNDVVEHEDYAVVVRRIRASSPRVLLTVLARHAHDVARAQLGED
NHERF4_4, Q86UT5, sequence (Q86UT5 464-550): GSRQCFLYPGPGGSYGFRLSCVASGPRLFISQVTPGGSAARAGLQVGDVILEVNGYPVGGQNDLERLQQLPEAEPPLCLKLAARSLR
DLG4_2, P78352, sequence (P78352 155-259): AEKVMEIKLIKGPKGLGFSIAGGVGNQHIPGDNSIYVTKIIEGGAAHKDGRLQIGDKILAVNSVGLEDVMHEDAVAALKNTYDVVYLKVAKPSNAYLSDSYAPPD
SCRIB_2, Q14160, sequence (Q14160 857-960): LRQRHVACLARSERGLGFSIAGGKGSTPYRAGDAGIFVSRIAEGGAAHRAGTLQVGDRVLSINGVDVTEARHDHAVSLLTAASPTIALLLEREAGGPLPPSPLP
FRMPD4, Q14CM0, sequence (Q14CM0 67-160): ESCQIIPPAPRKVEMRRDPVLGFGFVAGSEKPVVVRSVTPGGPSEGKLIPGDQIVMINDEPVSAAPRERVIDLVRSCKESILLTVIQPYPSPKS
LNX1_1, Q8TBB1, sequence (Q8TBB1 261-371): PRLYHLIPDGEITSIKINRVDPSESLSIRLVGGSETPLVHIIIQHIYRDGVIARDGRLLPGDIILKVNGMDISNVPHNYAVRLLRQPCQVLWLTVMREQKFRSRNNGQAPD
SCRIB_1, Q14160, sequence (Q14160 718-814): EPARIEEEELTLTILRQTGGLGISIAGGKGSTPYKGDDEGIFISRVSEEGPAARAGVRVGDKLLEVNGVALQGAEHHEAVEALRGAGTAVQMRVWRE
FRMPD2_1, Q68DX3, sequence (Q68DX3 770-861): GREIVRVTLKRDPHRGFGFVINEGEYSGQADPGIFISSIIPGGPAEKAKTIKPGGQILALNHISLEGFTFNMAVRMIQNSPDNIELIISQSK

In the case of KKYVDAETSL [SLC4A7, Q9Y6M7], the pKd (GRIP1_7, Q9Y3R0; [1]) is reported as “below the threshold”, the pKd (TJP3_3, O95049; [1]) is reported as “below the threshold” and the pKd (DLG3_3, Q92796; [1]) is reported as 3.79. The pKd (FRMPD2_1, Q68DX3; [1]) was “below the threshold”, the pKd (LNX1_3, Q8TBB1; [1]) was “below the threshold” and the pKd (DLG4_2, P78352; [1]) was “below the threshold”. For the same binder, the pKd (MAST2, Q6P0Q8; [1]) was 6.38, the pKd (Inadl_2, Q8NI35; [1]) was “below the threshold” and the pKd (FRMPD4, Q14CM0; [1]) was 4.4. The pKd (NHERF3_1, Q5T2W1; [1]) was 5.38, the pKd (DLG4_1, P78352; [1]) was 3.73 and the pKd (Inadl_8, Q8NI35; [1]) was “below the threshold”. The pKd (MAGI2_3, Q86UL8; [1]) was “below the threshold”, the pKd (SCRIB_1, Q14160; [1]) was 5.54 and the pKd (LNX1_1, Q8TBB1; [1]) was “below the threshold”. The pKd (LIMK2, P53671; [1]) was “below the threshold”, the pKd (SNX27, Q96L92; [1]) was 5.71 and the pKd (DLG1_3, Q12959; [1]) was 3.75. The pKd (APBA2_1, Q99767; [1]) was “below the threshold”, the pKd (SCRIB_2, Q14160; [1]) was 3.77 and the pKd (HTRA4, P83105; [1]) was “below the threshold”. For the same binder, the pKd (MAGI2_5, Q86UL8; [1]) was 3.52, the pKd (DLG2_2, Q15700; [1]) was “below the threshold” and the pKd (PDZD2_2, O15018; [1]) was 4.06. For the same binder, the pKd (NHERF4_1, Q86UT5-2; [1]) was 3.49, the pKd (GRIP2_3, Q9C0E4; [1]) was “below the threshold” and the pKd (DFNB31_3, Q9P202; [1]) was “below the threshold”. The pKd (GORASP2, Q9H8Y8; [1]) was “below the threshold”, the pKd (GOPC, Q9HD26; [1]) was 4.09 and the pKd (DLG4_3, P78352; [1]) was 3.59. For the same binder, the pKd (NHERF4_4, Q86UT5; [1]) was “below the threshold”.

In the case of SSLQSLETSV [ATP2B4, P23634], the pKd (GRIP1_7, Q9Y3R0; [1]) is reported as “below the threshold”, the pKd (TJP3_3, O95049; [1]) is reported as 3.71 and the pKd (DLG3_3, Q92796; [1]) is reported as 4.73. The pKd (FRMPD2_1, Q68DX3; [1]) was 4.17, the pKd (LNX1_3, Q8TBB1; [1]) was 3.59 and the pKd (DLG4_2, P78352; [1]) was 5.18. For the same binder, the pKd (MAST2, Q6P0Q8; [1]) was 5.53, the pKd (Inadl_2, Q8NI35; [1]) was “below the threshold” and the pKd (FRMPD4, Q14CM0; [1]) was “below the threshold”. For the same binder, the pKd (NHERF3_1, Q5T2W1; [1]) was 4.41, the pKd (DLG4_1, P78352; [1]) was 4.78 and the pKd (Inadl_8, Q8NI35; [1]) was 3.54. For the same binder, the pKd (MAGI2_3, Q86UL8; [1]) was 4.2, the pKd (SCRIB_1, Q14160; [1]) was 5.03 and the pKd (LNX1_1, Q8TBB1; [1]) was 3.71. The pKd (LIMK2, P53671; [1]) was “below the threshold”, the pKd (SNX27, Q96L92; [1]) was 5.7 and the pKd (DLG1_3, Q12959; [1]) was 4.86. For the same binder, the pKd (APBA2_1, Q99767; [1]) was “below the threshold”, the pKd (SCRIB_2, Q14160; [1]) was 4.9 and the pKd (HTRA4, P83105; [1]) was 3.6. It also gave a pKd (MAGI2_5, Q86UL8; [1]) of 4.6, a pKd (DLG2_2, Q15700; [1]) of 5.08 and a pKd (PDZD2_2, O15018; [1]) of 4.56. For the same binder, the pKd (NHERF4_1, Q86UT5-2; [1]) was “below the threshold”, the pKd (GRIP2_3, Q9C0E4; [1]) was “below the threshold” and the pKd (DFNB31_3, Q9P202; [1]) was “below the threshold”. The pKd (GORASP2, Q9H8Y8; [1]) was 3.98, the pKd (GOPC, Q9HD26; [1]) was “below the threshold” and the pKd (DLG4_3, P78352; [1]) was 4.65. For the same binder, the pKd (NHERF4_4, Q86UT5; [1]) was “below the threshold”.

With GYDWGPATDL [TJP3, O95049] the pKd (GRIP1_7, Q9Y3R0; [2]) was “below the threshold”, the pKd (TJP3_3, O95049; [2]) was “below the threshold” and the pKd (DLG3_3, Q92796; [2]) was “below the threshold”. For the same binder, the pKd (FRMPD2_1, Q68DX3; [2]) was “below the threshold”, the pKd (LNX1_3, Q8TBB1; [2]) was “below the threshold” and the pKd (DLG4_2, P78352; [2]) was 3.68. The pKd (MAST2, Q6P0Q8; [2]) was 5.77, the pKd (Inadl_2, Q8NI35; [2]) was “below the threshold” and the pKd (FRMPD4, Q14CM0; [2]) was 3.83. The pKd (NHERF3_1, Q5T2W1; [2]) was “below the threshold”, the pKd (DLG4_1, P78352; [2]) was 3.53 and the pKd (Inadl_8, Q8NI35; [2]) was 3.49. The pKd (MAGI2_3, Q86UL8; [2]) was “below the threshold”, the pKd (SCRIB_1, Q14160; [2]) was 3.76 and the pKd (LNX1_1, Q8TBB1; [2]) was 4.84. For the same binder, the pKd (LIMK2, P53671; [2]) was “below the threshold”, the pKd (SNX27, Q96L92; [2]) was 3.64 and the pKd (DLG1_3, Q12959; [2]) was “below the threshold”. For the same binder, the pKd (APBA2_1, Q99767; [2]) was “below the threshold”, the pKd (SCRIB_2, Q14160; [2]) was 3.78 and the pKd (HTRA4, P83105; [2]) was “below the threshold”. The pKd (MAGI2_5, Q86UL8; [2]) was “below the threshold”, the pKd (DLG2_2, Q15700; [2]) was “below the threshold” and the pKd (PDZD2_2, O15018; [2]) was 4.46. The pKd (NHERF4_1, Q86UT5-2; [2]) was 3.72, the pKd (GRIP2_3, Q9C0E4; [2]) was “below the threshold” and the pKd (DFNB31_3, Q9P202; [2]) was “below the threshold”. For the same binder, the pKd (GORASP2, Q9H8Y8; [2]) was “below the threshold”, the pKd (GOPC, Q9HD26; [2]) was 3.93 and the pKd (DLG4_3, P78352; [2]) was “below the threshold”. The pKd (NHERF4_4, Q86UT5; [2]) was “below the threshold”.
